Results on 14 molecules are retold here after US20140294898A1 (published 2014).

B1: Compound No. 27 (peptide)
peptide: {CH2CO}-[1Nal][NMeA]NPHL[Sar]WSW[NMeNle][NMeNle]RCG-NH2
modifications: thioether N-14
SMILES: CCCC[C@H]1C(=O)N(C)[C@@H](CCCC)C(=O)N[C@@H](CCCNC(=N)N)C(=O)N[C@H](C(=O)NCC(N)=O)CSCC(=O)N[C@@H](Cc2cccc3ccccc23)C(=O)N(C)[C@@H](C)C(=O)N[C@@H](CC(N)=O)C(=O)N2CCC[C@H]2C(=O)N[C@@H](Cc2c[nH]cn2)C(=O)N[C@@H](CC(C)C)C(=O)N(C)CC(=O)N[C@@H](Cc2c[nH]c3ccccc23)C(=O)N[C@@H](CO)C(=O)N[C@@H](Cc2c[nH]c3ccccc23)C(=O)N1C
notes: macrocyclic peptide, Formula I series; also called Compound 27
B2: Compound No. 24 (peptide)
peptide: {CH2CO}-F[NMeA]NPHL[Sar]WSW[NMeNle][NMeNle]RC-NH2
modifications: thioether N-14
SMILES: CCCC[C@H]1C(=O)N(C)[C@@H](CCCC)C(=O)N[C@@H](CCCNC(=N)N)C(=O)N[C@H](C(N)=O)CSCC(=O)N[C@@H](Cc2ccccc2)C(=O)N(C)[C@@H](C)C(=O)N[C@@H](CC(N)=O)C(=O)N2CCC[C@H]2C(=O)N[C@@H](Cc2c[nH]cn2)C(=O)N[C@@H](CC(C)C)C(=O)N(C)CC(=O)N[C@@H](Cc2c[nH]c3ccccc23)C(=O)N[C@@H](CO)C(=O)N[C@@H](Cc2c[nH]c3ccccc23)C(=O)N1C
notes: macrocyclic peptide, Formula I series; also called Compound 24
B3: Compound No. 65 (peptide)
peptide: FANPHLGWSWLXRCG
HELM: PEPTIDE1{[O=C(C[*:3])[*:2]].F.[meA].N.P.H.L.[Sar].W.S.W.[meL].[CCCC[C@@H](C(=O)[*:2])N(C)[*:1]].R.C.G.[am]}$PEPTIDE1,PEPTIDE1,1:R3-15:R3$$$V2.0
SMILES: CCCC[C@H]1C(=O)N[C@@H](CCCNC(=N)N)C(=O)N[C@H](C(=O)NCC(N)=O)CSCC(=O)N[C@@H](Cc2ccccc2)C(=O)N(C)[C@@H](C)C(=O)N[C@@H](CC(N)=O)C(=O)N2CCC[C@H]2C(=O)N[C@@H](Cc2c[nH]cn2)C(=O)N[C@@H](CC(C)C)C(=O)N(C)CC(=O)N[C@@H](Cc2c[nH]c3ccccc23)C(=O)N[C@@H](CO)C(=O)N[C@@H](Cc2c[nH]c3ccccc23)C(=O)N(C)[C@@H](CC(C)C)C(=O)N1C
notes: macrocyclic peptide, Formula I series; also called Compound 65
B4: Compound No. 39 (peptide)
peptide: {CH2CO}-[4Pal][NMeA]NPHL[Sar]WSW[NMeNle][NMeNle]RCG-NH2
modifications: thioether N-14
SMILES: CCCC[C@H]1C(=O)N(C)[C@@H](CCCC)C(=O)N[C@@H](CCCNC(=N)N)C(=O)N[C@H](C(=O)NCC(N)=O)CSCC(=O)N[C@@H](Cc2ccncc2)C(=O)N(C)[C@@H](C)C(=O)N[C@@H](CC(N)=O)C(=O)N2CCC[C@H]2C(=O)N[C@@H](Cc2c[nH]cn2)C(=O)N[C@@H](CC(C)C)C(=O)N(C)CC(=O)N[C@@H](Cc2c[nH]c3ccccc23)C(=O)N[C@@H](CO)C(=O)N[C@@H](Cc2c[nH]c3ccccc23)C(=O)N1C
notes: macrocyclic peptide, Formula I series; also called Compound 39
B5: Compound No. 28 (peptide)
peptide: {CH2CO}-[Bip][NMeA]NPHL[Sar]WSW[NMeNle][NMeNle]RCG-NH2
modifications: thioether N-14
SMILES: CCCC[C@H]1C(=O)N(C)[C@@H](CCCC)C(=O)N[C@@H](CCCNC(=N)N)C(=O)N[C@H](C(=O)NCC(N)=O)CSCC(=O)N[C@@H](Cc2ccc(-c3ccccc3)cc2)C(=O)N(C)[C@@H](C)C(=O)N[C@@H](CC(N)=O)C(=O)N2CCC[C@H]2C(=O)N[C@@H](Cc2c[nH]cn2)C(=O)N[C@@H](CC(C)C)C(=O)N(C)CC(=O)N[C@@H](Cc2c[nH]c3ccccc23)C(=O)N[C@@H](CO)C(=O)N[C@@H](Cc2c[nH]c3ccccc23)C(=O)N1C
notes: macrocyclic peptide, Formula I series; also called Compound 28
B6: Compound No. 69 (peptide)
peptide: FANPHLGWSWFXRCG
HELM: PEPTIDE1{[O=C(C[*:3])[*:2]].F.[meA].N.P.H.L.[Sar].W.S.W.F.[CCCC[C@@H](C(=O)[*:2])N(C)[*:1]].R.C.G.[am]}$PEPTIDE1,PEPTIDE1,1:R3-15:R3$$$V2.0
SMILES: CCCC[C@H]1C(=O)N[C@@H](CCCNC(=N)N)C(=O)N[C@H](C(=O)NCC(N)=O)CSCC(=O)N[C@@H](Cc2ccccc2)C(=O)N(C)[C@@H](C)C(=O)N[C@@H](CC(N)=O)C(=O)N2CCC[C@H]2C(=O)N[C@@H](Cc2c[nH]cn2)C(=O)N[C@@H](CC(C)C)C(=O)N(C)CC(=O)N[C@@H](Cc2c[nH]c3ccccc23)C(=O)N[C@@H](CO)C(=O)N[C@@H](Cc2c[nH]c3ccccc23)C(=O)N[C@@H](Cc2ccccc2)C(=O)N1C
notes: macrocyclic peptide, Formula I series; Phe at 11 is not N-methylated; also called Compound 69
B7: Compound No. 32 (peptide)
peptide: {CH2CO}-[Phe(4-F)][NMeA]NPHL[Sar]WSW[NMeNle][NMeNle]RCG-NH2
modifications: thioether N-14
SMILES: CCCC[C@H]1C(=O)N(C)[C@@H](CCCC)C(=O)N[C@@H](CCCNC(=N)N)C(=O)N[C@H](C(=O)NCC(N)=O)CSCC(=O)N[C@@H](Cc2ccc(F)cc2)C(=O)N(C)[C@@H](C)C(=O)N[C@@H](CC(N)=O)C(=O)N2CCC[C@H]2C(=O)N[C@@H](Cc2c[nH]cn2)C(=O)N[C@@H](CC(C)C)C(=O)N(C)CC(=O)N[C@@H](Cc2c[nH]c3ccccc23)C(=O)N[C@@H](CO)C(=O)N[C@@H](Cc2c[nH]c3ccccc23)C(=O)N1C
notes: macrocyclic peptide, Formula I series; also called Compound 32
B8: Compound No. 52 (peptide)
peptide: FANPHLXWSWXXRCG
modifications: ClAc on N-terminus cyclized as thioether with Cys14; mAla (N-methyl-Ala) at 2; Dab (2,4-diaminobutyric acid, written X) at 7; mNle (N-methyl-norleucine, written X) at 11 and 12; C-terminal NH2
notes: macrocyclic peptide, Formula I series; also called Compound 52
B9: Compound No. 37 (peptide)
peptide: {CH2CO}-[Phe(4-tBu)][NMeA]NPHL[Sar]WSW[NMeNle][NMeNle]RCG-NH2
modifications: thioether N-14
SMILES: CCCC[C@H]1C(=O)N(C)[C@@H](CCCC)C(=O)N[C@@H](CCCNC(=N)N)C(=O)N[C@H](C(=O)NCC(N)=O)CSCC(=O)N[C@@H](Cc2ccc(C(C)(C)C)cc2)C(=O)N(C)[C@@H](C)C(=O)N[C@@H](CC(N)=O)C(=O)N2CCC[C@H]2C(=O)N[C@@H](Cc2c[nH]cn2)C(=O)N[C@@H](CC(C)C)C(=O)N(C)CC(=O)N[C@@H](Cc2c[nH]c3ccccc23)C(=O)N[C@@H](CO)C(=O)N[C@@H](Cc2c[nH]c3ccccc23)C(=O)N1C
notes: macrocyclic peptide, Formula I series; also called Compound 37
B10: Compound No. 40 (peptide)
peptide: {CH2CO}-[3Thi][NMeA]NPHL[Sar]WSW[NMeNle][NMeNle]RCG-NH2
modifications: thioether N-14
SMILES: CCCC[C@H]1C(=O)N(C)[C@@H](CCCC)C(=O)N[C@@H](CCCNC(=N)N)C(=O)N[C@H](C(=O)NCC(N)=O)CSCC(=O)N[C@@H](Cc2ccsc2)C(=O)N(C)[C@@H](C)C(=O)N[C@@H](CC(N)=O)C(=O)N2CCC[C@H]2C(=O)N[C@@H](Cc2c[nH]cn2)C(=O)N[C@@H](CC(C)C)C(=O)N(C)CC(=O)N[C@@H](Cc2c[nH]c3ccccc23)C(=O)N[C@@H](CO)C(=O)N[C@@H](Cc2c[nH]c3ccccc23)C(=O)N1C
notes: macrocyclic peptide, Formula I series; also called Compound 40
B11: Compound No. 33 (peptide)
peptide: {CH2CO}-[Phe(4-Cl)][NMeA]NPHL[Sar]WSW[NMeNle][NMeNle]RCG-NH2
modifications: thioether N-14
SMILES: CCCC[C@H]1C(=O)N(C)[C@@H](CCCC)C(=O)N[C@@H](CCCNC(=N)N)C(=O)N[C@H](C(=O)NCC(N)=O)CSCC(=O)N[C@@H](Cc2ccc(Cl)cc2)C(=O)N(C)[C@@H](C)C(=O)N[C@@H](CC(N)=O)C(=O)N2CCC[C@H]2C(=O)N[C@@H](Cc2c[nH]cn2)C(=O)N[C@@H](CC(C)C)C(=O)N(C)CC(=O)N[C@@H](Cc2c[nH]c3ccccc23)C(=O)N[C@@H](CO)C(=O)N[C@@H](Cc2c[nH]c3ccccc23)C(=O)N1C
notes: macrocyclic peptide, Formula I series; also called Compound 33
B12: Compound No. 26 (peptide)
peptide: {CH2CO}-[2Nal][NMeA]NPHL[Sar]WSW[NMeNle][NMeNle]RCG-NH2
modifications: thioether N-14
SMILES: CCCC[C@H]1C(=O)N(C)[C@@H](CCCC)C(=O)N[C@@H](CCCNC(=N)N)C(=O)N[C@H](C(=O)NCC(N)=O)CSCC(=O)N[C@@H](Cc2ccc3ccccc3c2)C(=O)N(C)[C@@H](C)C(=O)N[C@@H](CC(N)=O)C(=O)N2CCC[C@H]2C(=O)N[C@@H](Cc2c[nH]cn2)C(=O)N[C@@H](CC(C)C)C(=O)N(C)CC(=O)N[C@@H](Cc2c[nH]c3ccccc23)C(=O)N[C@@H](CO)C(=O)N[C@@H](Cc2c[nH]c3ccccc23)C(=O)N1C
notes: macrocyclic peptide, Formula I series; also called Compound 26
B13: Compound No. 38 (peptide)
peptide: {CH2CO}-[3Pal][NMeA]NPHL[Sar]WSW[NMeNle][NMeNle]RCG-NH2
modifications: thioether N-14
SMILES: CCCC[C@H]1C(=O)N(C)[C@@H](CCCC)C(=O)N[C@@H](CCCNC(=N)N)C(=O)N[C@H](C(=O)NCC(N)=O)CSCC(=O)N[C@@H](Cc2cccnc2)C(=O)N(C)[C@@H](C)C(=O)N[C@@H](CC(N)=O)C(=O)N2CCC[C@H]2C(=O)N[C@@H](Cc2c[nH]cn2)C(=O)N[C@@H](CC(C)C)C(=O)N(C)CC(=O)N[C@@H](Cc2c[nH]c3ccccc23)C(=O)N[C@@H](CO)C(=O)N[C@@H](Cc2c[nH]c3ccccc23)C(=O)N1C
notes: macrocyclic peptide, Formula I series; also called Compound 38
B14: Compound No. 34 (peptide)
peptide: {CH2CO}-[Phe(4-Br)][NMeA]NPHL[Sar]WSW[NMeNle][NMeNle]RCG-NH2
modifications: thioether N-14
SMILES: CCCC[C@H]1C(=O)N(C)[C@@H](CCCC)C(=O)N[C@@H](CCCNC(=N)N)C(=O)N[C@H](C(=O)NCC(N)=O)CSCC(=O)N[C@@H](Cc2ccc(Br)cc2)C(=O)N(C)[C@@H](C)C(=O)N[C@@H](CC(N)=O)C(=O)N2CCC[C@H]2C(=O)N[C@@H](Cc2c[nH]cn2)C(=O)N[C@@H](CC(C)C)C(=O)N(C)CC(=O)N[C@@H](Cc2c[nH]c3ccccc23)C(=O)N[C@@H](CO)C(=O)N[C@@H](Cc2c[nH]c3ccccc23)C(=O)N1C
notes: macrocyclic peptide, Formula I series; also called Compound 34

Positions of bridges follow the written chain, without caps; N, C: chain ends. Non-standard residues stand in square brackets, D forms with d. Phe(4-tBu) = CC(C)(C)c1ccc(C[C@H](N)C(=O)O)cc1; Bip = N[C@@H](Cc1ccc(-c2ccccc2)cc1)C(=O)O; Phe(4-Br) = N[C@@H](Cc1ccc(Br)cc1)C(=O)O; Phe(4-Cl) = N[C@@H](Cc1ccc(Cl)cc1)C(=O)O; Phe(4-F) = N[C@@H](Cc1ccc(F)cc1)C(=O)O; 1Nal = N[C@@H](Cc1cccc2ccccc12)C(=O)O; 2Nal = N[C@@H](Cc1ccc2ccccc2c1)C(=O)O; 3Pal = N[C@@H](Cc1cccnc1)C(=O)O; 4Pal = N[C@@H](Cc1ccncc1)C(=O)O; 3Thi = N[C@@H](Cc1ccsc1)C(=O)O; NMeNle = CCCC[C@H](NC)C(=O)O; NMeA = CN[C@@H](C)C(=O)O; Sar = CNCC(=O)O

T1 sequence (Q9NZQ7 19-239 limits assumed): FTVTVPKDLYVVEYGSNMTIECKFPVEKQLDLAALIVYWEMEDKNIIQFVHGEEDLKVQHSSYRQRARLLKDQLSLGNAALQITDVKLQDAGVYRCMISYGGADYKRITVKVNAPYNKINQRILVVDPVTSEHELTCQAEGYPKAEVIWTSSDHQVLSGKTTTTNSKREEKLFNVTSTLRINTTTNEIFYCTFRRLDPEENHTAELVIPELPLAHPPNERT

This assay concerns the target T1, human PD-L1 (human, UniProt Q9NZQ7 19-239, limits assumed).
T1 construct: also called Hu PD-L1; hPD-L1
Nature of the assay: cell binding assay, inhibition of Hu PD-L1/PD-1 binding.
B1: the IC50 is 28 nM.

As for B2, the IC50 is 8 nM.

As to B3, the concentration for half-maximal inhibition (IC50) was 258 nM.

Molecule B4 registered an IC50 of 283 nM. The IC50 values of the last two molecules are within 1.5-fold of each other.

In the case of B5, the IC50 turned out to be 82 nM.

B6 registered an IC50 of 351 nM.

B7 returned an IC50 of 25 nM.

As to B8, the 50% inhibitory concentration (IC50) amounted to 108 nM.

In turn, B9 returned an IC50 of 2520 nM.

B10 displayed an IC50 of 20 nM. Compared with the last molecule, the IC50 is about 130-fold lower.

As for B11, the half-inhibitory concentration (IC50) was found to be 7 nM. This IC50 lies about 2.9-fold lower than the previous one.

Molecule B12 yielded an IC50 of 13 nM.

Regarding B13, the IC50 stood at 368 nM.

Turning to B14, the IC50 turned out to be 37 nM.
